According to article PMC7583008:

What was measured:
[1] = target: GH2 β-mannosidase from Cellulomonas fimi (EC 3.2.1.25) (Cellulomonas fimi) (UniProt Q9XCV4)
[2] = target: GH2 β-mannosidase from Cellulomonas fimi (EC 3.2.1.25) (Cellulomonas fimi) (UniProt Q9XCV4); remark: listed apart in the source
[3] = target: GH2 β-mannosidase from Cellulomonas fimi (EC 3.2.1.25) (Cellulomonas fimi) (UniProt Q9XCV4); remark: listed apart in the source
[4] = target: GH2 β-mannosidase from Cellulomonas fimi (EC 3.2.1.25) (Cellulomonas fimi) (UniProt Q9XCV4); experiment: enzyme inhibition titration (residual activity against inhibitor/enzyme ratio); fixed enzyme (11.8 μM) preincubated with increasing γC for 10 min at room temperature; 100 mM sodium maleate pH 6.0, BSA 1 mg/mL, 1 mM Zn2+, pNP-β-D-mannopyranoside 0.8 mM, 35 °C, 15 min; Ki calculated from the IC50 by the method of Cer et al., assuming competitive inhibition (Km 300 μM); stoichiometry from the x-intercept of the tangent line

Chain of UniProt Q9XCV4 (Q9XCV4 entry or part of it): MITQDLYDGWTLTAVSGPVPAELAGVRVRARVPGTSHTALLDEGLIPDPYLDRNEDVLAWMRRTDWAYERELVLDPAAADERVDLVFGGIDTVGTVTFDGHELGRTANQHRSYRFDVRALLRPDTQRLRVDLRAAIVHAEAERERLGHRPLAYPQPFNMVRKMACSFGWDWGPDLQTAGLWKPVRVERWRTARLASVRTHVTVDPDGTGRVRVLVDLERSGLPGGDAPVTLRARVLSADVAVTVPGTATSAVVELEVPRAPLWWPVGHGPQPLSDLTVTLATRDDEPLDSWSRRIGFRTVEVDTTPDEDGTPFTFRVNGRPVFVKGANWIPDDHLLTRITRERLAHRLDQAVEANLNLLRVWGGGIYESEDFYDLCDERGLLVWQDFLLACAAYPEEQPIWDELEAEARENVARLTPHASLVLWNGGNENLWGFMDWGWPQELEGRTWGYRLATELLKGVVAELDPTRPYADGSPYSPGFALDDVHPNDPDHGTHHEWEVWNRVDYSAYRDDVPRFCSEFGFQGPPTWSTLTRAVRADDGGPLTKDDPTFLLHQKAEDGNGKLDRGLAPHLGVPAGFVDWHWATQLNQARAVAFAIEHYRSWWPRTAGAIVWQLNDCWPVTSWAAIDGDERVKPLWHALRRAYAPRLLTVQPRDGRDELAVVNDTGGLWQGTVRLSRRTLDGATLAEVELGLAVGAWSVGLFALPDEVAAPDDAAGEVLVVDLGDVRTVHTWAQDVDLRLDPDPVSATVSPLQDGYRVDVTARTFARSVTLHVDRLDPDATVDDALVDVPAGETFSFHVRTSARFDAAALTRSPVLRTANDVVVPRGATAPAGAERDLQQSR

residual activity of GH2 β-mannosidase with γC at a molar ratio of 1:1 (pNP-β-D-mannopyranoside as substrate, no metal added) [1]: 73%
residual activity of GH2 β-mannosidase with γC at a molar ratio of 1:1 in the presence of 1 mM Zn2+ [2]: 55%
IC50 of the inhibition of GH2 β-mannosidase activity by γC, as a molar ratio (11.8 μM enzyme, 1 mM Zn2+, pH 6.0) (molar ratio [γC]/[GH2]) [3]: 0.99
Ki [4]: 1.55 µM
stoichiometry N (enzyme/inhibitor) [4]: 1.14
Substance: Lupinus albus γ-conglutin (natural protein)
